The test addresses Trypanosoma brucei enolase (Trypanosoma brucei). Kind of test: SEC.

As usually defined, the stoichiometry N is the number of molecules, sites or subunits per partner or assembly. Turning to Trypanosoma brucei enolase (enzyme), the stoichiometry N came to 2.

These data come from paper doi:10.64898/2025.12.17.694860.
